Assay results taken from US20130096058A1 (AstraZeneca / MedImmune, published 2013).

Columns and labels:
cyno TRAIL R2-Fc [1] = molecular target: T1, cyno TRAIL R2-Fc (cynomolgus monkey (Macaca fascicularis)); test: competition ELISA: plate coated with F4 mod 1, cyno TRAIL R2-Fc, monomer titrated as competitor
T1 construct: The text prints 'cyno TRAIL R2' and 'cyno TRAIL R2-Fc' for the same ELISAs; also called cynomolgus TRAIL R2

cyno TRAIL R2-Fc [2] = molecular target: T1, cyno TRAIL R2-Fc; test: competition ELISA: F4 mod 1 coated, cyno TRAIL R2-Fc
cyno TRAIL R2-Fc [3] = molecular target: T1, cyno TRAIL R2-Fc; test: competition ELISA: plate coated with F4 mod 1, 0.75 nM cyno TRAIL R2-Fc, purified monomer titrated as competitor
[4] = molecular target: endogenous TRAIL R2 expressed on the cell surface (human, UniProt O14763 56-440); test: cell-based or functional assay

| IC50 (cyno TRAIL R2-Fc [1]) [nM] | fold difference in binding between F4 mod 1 and F4 mod 12 (cyno TRAIL R2-Fc [2]) [fold] | IC50 (cyno TRAIL R2-Fc [3]) [nM] | Maximum Inhibition % (H2122) [4] [%] | Binder |
| --- | --- | --- | --- | --- |
| 34 | ≤ 2 | 34 |  | F4 mod 1 (designed binder, F4 with a D to G mutation two amino acids before the DE loop) AIEVKDVTDTTALITWAKPWVDPPPLWGCELAYGIKDVPGDRTTIGLQQKHTAYSIGNLKPDTEYEVSLICFDPYGLKSRPAKETFTTGGGTLGHHHHHHHH |
| 50 | ≤ 2 |  |  | F4 mod 12 (designed binder, Germline-engineered F4 mod 1) SQIEVKDVTDTTALITWAKPWVDPPPLWGCELTYGIKDVPGDRTTIGLQQKHNQYSIGNLKPDTEYEVSLICFDPYGLKSRPAKETFTTGLGTLGHHHHHHHH |
|  |  |  | 91 | A3 (1E11) (designed binder) SGGGGSAIEVKDVTDTTALITWAKPWVDPPPLWGCELAYGIKDVPGDRTTIDLQQKHTAYSIGNLKPDTEYEVSLICFDPYGAKSNPAKETFTTGGGGSGGGGSGGGGSAIEVKDVTDTTALITWAKPWVDPPPLWGCELAYGIKDVPGDRTTIDLQQKHTAYSIGNLKPDTEYEVSLICFDPYGAKSNPAKETFTTGGGGSGGGGSGGGGSAIEVKDVTDTTALITWAKPWVDPPPLWGCELAYGIKDVPGDRTTIDLQQKHTAYSIGNLKPDTEYEVSLICFDPYGAKSNPAKETFTTGGGGSGGGGSGGGGSAIEVKDVTDTTALITWAKPWVDPPPLWGCELAYGIKDVPGDRTTIDLQQKHTAYSIGNLKPDTEYEVSLICFDPYGAKSNPAKETFTTGGGGSGGGGSGTLGHHHHHHHH |
